What was measured:
[1] = biological target: Abz-Val-Ala-DNle-Ser-Tyr(NO2)-Asp-NH2
[2] = biological target: Abz-Bip-Ala-hLeu-Hyp-Tyr(NO2)-Asp-NH2
[3] = biological target: Abz-Val-Ala-Nle-Ser-Phe-Asp-NH2
[4] = biological target: Abz-Val-Ala-hLeu-Ser-Tyr(NO2)-Asp-NH2
[5] = biological target: Abz-Val-Ala-Thr-Ser-Tyr(NO2)-Asp-NH2
[6] = biological target: Abz-Phe-Val-Ala-Nle-Ser-Tyr(NO2)-Asp-NH2
[7] = biological target: H-Ala-Nle-Ser-Tyr(NO2)-Asp-NR2
[8] = biological target: Bz-Val-Ala-Nle-Ser-Tyr(NO2)-NH2 (second printing, row r51)
[9] = biological target: Abz-Val-Ala-Lys-Ser-Tyr(NO2)-Asp-NH2
[10] = biological target: Abz-Val-2Nal-hLeu-Ser-Tyr(NO2)-Asp-NH2
[11] = biological target: Abz-Bip-Ala-hLeu-Leu-Tyr(NO2)-Asp-NH2
[12] = biological target: Abz-Val-Ala-Nle-Ser-Tyr-Asp-NH2
[13] = biological target: Abz-Cmpi-Nle-Ser-Tyr(NO2)-ASP-NH2
[14] = biological target: Abz-Val-DLys-hLeu-Ser-Tyr(NO2)-Asp-NH2
[15] = biological target: Abz-Val-Ala-ACP-Ser-Tyr(NO2)-Asp-NH2
[16] = biological target: H-Val-Ala-Nle-Ser-TyrNO2-ASp-NH2
[17] = biological target: Abz-DVal-Ala-hLeu-Ser-Tyr(NO2)-Asp-NH2
[18] = biological target: Abz-Bip-Ala-hLeu-3pyr-Tyr(NO2)-Asp-NH2
[19] = biological target: n-Bu-Val-Ala-Nle-Ser-Tyr(NO2)-NH2
[20] = biological target: Abz-Bip-Ala-hLeu-Lys-Tyr(NO2)-Asp-NH2
[21] = biological target: Bz(2-carboxy)-Val-Ala-Nle-Ser-Tyr(NO2)-NH2
[22] = biological target: Abz-Bip-Ala-hLeu-Ser-Tyr(NO2)-Asp-NH2
[23] = biological target: Abz-Val-(NMe)Ala-Nle-Ser-Tyr(NO2)-ASP-NH2
[24] = biological target: Abz-Val-ACP-hLeu-Ser-Tyr(NO2)-Asp-NH2
[25] = biological target: Abz-Val-Lys-hLeu-Ser-Tyr(NO2)-Asp-NH2
[26] = biological target: Abz-Val-Ala-Gln-Ser-Tyr(NO2)-Asp-NH2
[27] = biological target: Bz-Val-Ala-Statine-Ser-eAha-NH2
[28] = biological target: Abz-Val-Ala-Nle-Ser-Tyr(NO2)-NH2
[29] = biological target: Abz-Cha-Ala-hLeu-Ser-Tyr(NO2)-Asp-NH2
[30] = biological target: H-Ala-Nle-Ser-Tyr(NO2)-ASP-NH2
[31] = biological target: Abz-Bip-Ala-hLeu-Bu^tGly-Tyr(NO2)-Asp-NH2
[32] = biological target: Abz-3pyr-Ala-hLeu-Ser-Tyr(NO2)-Asp-NH2
[33] = biological target: Abz-1.Naph-Val-Ala-Nle-Ser-Tyr(NO2)-Asp-NH2
[34] = biological target: Abz-Val-Ala-Nle-Ser-eAHA-Asp-NH2
[35] = biological target: Abz-Bip-Ala-hLeu-Abu-Tyr(NO2)-Asp-NH2
[36] = biological target: nBu-D.Ser-D.Nle-D.Ala-D.Val-p.Aba-NH2
[37] = biological target: Abz-Bip-Ala-hLeu-Thr-Tyr(NO2)-Asp-NH2
[38] = biological target: Abz-Deg-Ala-Nle-Ser-Tyr(NO2)-Asp-NH2
[39] = biological target: Abz-Gln-Ala-hLeu-Ser-Tyr(NO2)-Asp-NH2
[40] = biological target: Abz-Lys-Val-Ala-Nle-Ser-Tyr(NO2)-Asp-NH2
[41] = biological target: Abz-Bip-Val-Ala-Nle-Ser-Tyr(NO2)-Asp-NH2
[42] = biological target: Abz-Val-Ala-3pyr-Ser-Tyr(NO2)-Asp-NH2
[43] = biological target: Abz-Val-Ala-Hyp-Ser-Tyr(NO2)-Asp-NH2
[44] = biological target: Abz-2Nal-Ala-hLeu-Ser-Tyr(NO2)-Asp-NH2
[45] = biological target: Abz-Val-Cha-hLeu-Ser-Tyr(NO2)-Asp-NH2
[46] = biological target: Abz-Val-Tic-hLeu-Ser-Tyr(NO2)-Asp-NH2

B1: Der pI (protein)
chain: TNACSINGNAPAEIDLRQMRTVTPIRMQGGCGSCWAFSGVAATESAYLAYRNQSLDLAEQELVDCASQHGCHGDTIPRGIEYIQHNGVVQESYYRYVAREQSCRRPNAQRFGISNYCQIYPPNVNKIREALAQTHSAIAVIIGIKDLDAFRHYDGRTIIQRDNGYQPNYHAVNIVGYSNAQGVDYWIVRNSWDTNWGDNGYGYFAANIDLMMIEEYPYVVIL
Measured Km (µM) [1]: NS
Measured Km [2]: 4 µM
Measured Km (µM) [3]: NM
Measured Km [4]: 4 µM
Measured Km [5]: 6 µM
Measured Km (µM) [6]: NM
Measured Km (µM) [7]: NS
Measured Km (µM) [8]: NM^a
Measured Km [9]: 14 µM
Measured Km (µM) [10]: NS
Measured Km [11]: 3.7 µM
Measured Km (µM) [12]: NM
Measured Km (µM) [13]: NS
Measured Km (µM) [14]: NS
Measured Km (µM) [15]: NS
Measured Km (µM) [16]: NS
Measured Km (µM) [17]: NS
Measured Km [18]: 4 µM
Measured Km (µM) [19]: NM^a
cleavage rate (rank order) [19]: Bz>n-But>Piv>Bz(2-carboxy)>Abz
Measured Km [20]: 2 µM
Measured Km (µM) [21]: NM^a
cleavage rate (rank order) [21]: Bz>n-But>Piv>Bz(2-carboxy)>Abz
Measured Km [22]: 2.5 µM
Measured Km (µM) [23]: NS
Measured Km (µM) [24]: NS
Measured Km [25]: 35 µM
Measured Km [26]: 6 µM
Measured Km (µM) [27]: NS
Measured Km (µM) [28]: NM
cleavage rate (rank order) [28]: Bz>n-But>Piv>Bz(2-carboxy)>Abz
Measured Km [29]: 9 µM
Measured Km (µM) [30]: NS
Measured Km [31]: 4 µM
Measured Km [32]: > 10 µM
Measured Km [33]: 17 µM
Measured Km (µM) [34]: NM
Measured Km [35]: 1.7 µM
Measured Km (µM) [36]: NS
Measured Km [37]: 2.5 µM
Measured Km (µM) [38]: NS
Measured Km [39]: 12 µM
Measured Km [40]: 15 µM
Measured Km [41]: 10 µM
Measured Km [42]: 10 µM
Measured Km (µM) [43]: NS
Measured Km [44]: 15 µM
Measured Km (µM) [45]: NS
Measured Km (µM) [46]: NS
